The values that follow come from patent publication US20240034757A1 (OXFORD UNIVERSITY INNOVATION, published 2024).

Changes are numbered by the printed parent chain. In names and notes the source's numbering stands.

For test [1], the target named is T1, CCL8_HUMAN (human, UniProt P80075 24-99).
T1 sequence (looked up): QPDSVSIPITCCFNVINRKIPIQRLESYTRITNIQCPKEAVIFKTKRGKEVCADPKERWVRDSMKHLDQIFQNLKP
Briefly: cell-based or functional assay.

The target in test [2] is T1, CCL8_HUMAN. Put plainly: BLI.
The next test deals with T2, CCL18_HUMAN (human, UniProt P55774 21-89).
T2 sequence: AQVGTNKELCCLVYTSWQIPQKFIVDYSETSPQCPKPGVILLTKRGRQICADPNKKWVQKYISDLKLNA
Put plainly: BLI.

In test [3] the target is T3, CCL3_HUMAN (human, UniProt P10147 24-92).
T3 sequence: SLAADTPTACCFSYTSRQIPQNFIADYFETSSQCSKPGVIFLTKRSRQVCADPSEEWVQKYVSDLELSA
Briefly: BLI. Background: Biolayer interferometry detects binding as a change in optical thickness at a sensor tip.

In another test the target is T4, CCL15_HUMAN (human, UniProt Q16663 22-113).
T4 sequence: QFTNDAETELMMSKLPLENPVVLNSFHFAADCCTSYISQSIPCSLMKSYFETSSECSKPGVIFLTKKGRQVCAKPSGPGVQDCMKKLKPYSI
Briefly: BLI.

The target in a further test is CCL11_HUMAN (human, UniProt P51671 24-97). Briefly: BLI.
Test [4] deals with T1, CCL8_HUMAN. Put plainly: BLI. The source holds these as a separate data set.
The target in another test is T5, CCL16_HUMAN (human, UniProt O15467 24-120).
T5 sequence: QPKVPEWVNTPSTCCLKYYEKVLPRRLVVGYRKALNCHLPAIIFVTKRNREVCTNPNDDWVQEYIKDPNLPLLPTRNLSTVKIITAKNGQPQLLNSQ
Briefly: BLI.

A further test concerns the target T6, CCL1_HUMAN (human, UniProt P22362 24-96).
T6 sequence: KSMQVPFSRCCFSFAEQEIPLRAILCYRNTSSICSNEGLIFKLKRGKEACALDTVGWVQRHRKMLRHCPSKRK
Briefly: BLI.

The next test concerns the target CCL13_HUMAN (human, UniProt Q99616 24-98). Put plainly: BLI.
For a further test, the target named is T7, CCL27_HUMAN (human, UniProt Q9Y4X3 25-112).
T7 sequence: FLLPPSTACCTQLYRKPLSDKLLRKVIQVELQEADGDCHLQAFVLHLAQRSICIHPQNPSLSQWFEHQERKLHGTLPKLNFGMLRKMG
Briefly: BLI.

Test [5] concerns the target T8, CCL5_HUMAN (human, UniProt P13501 24-91).
T8 sequence: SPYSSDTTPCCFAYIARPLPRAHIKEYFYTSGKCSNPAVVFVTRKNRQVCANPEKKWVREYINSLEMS
Briefly: BLI.

Another test has as its target CCL20_HUMAN (human, UniProt P78556 27-96). Briefly: BLI.
A further test deals with T9, CCL21_HUMAN (human, UniProt O00585 24-134).
T9 sequence: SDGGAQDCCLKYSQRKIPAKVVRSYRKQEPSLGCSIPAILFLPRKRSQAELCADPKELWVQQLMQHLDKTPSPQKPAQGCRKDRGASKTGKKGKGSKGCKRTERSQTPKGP
Briefly: BLI.

The target of another test is T10, CCL4L1_HUMAN (human, UniProt Q8NHW4 24-92).
T10 sequence: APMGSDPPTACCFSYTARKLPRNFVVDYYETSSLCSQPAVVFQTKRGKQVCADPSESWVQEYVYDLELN
Put plainly: BLI.

The target of test [6] is T11, CCL7_HUMAN (human, UniProt P80098 24-99). Briefly: BLI.
For a further test, the target named is T12, CCL23_HUMAN (human, UniProt P55773 22-120).
T12 sequence: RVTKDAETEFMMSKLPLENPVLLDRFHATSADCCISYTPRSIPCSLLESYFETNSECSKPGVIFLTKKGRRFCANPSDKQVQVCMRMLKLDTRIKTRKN
Briefly: BLI.

The next test concerns the target T13, CCL4_HUMAN (human, UniProt P13236 24-92).
T13 sequence: T10 sequence with G47S
Put plainly: BLI.

The target of another test is T14, CCL19_HUMAN (human, UniProt Q99731 22-98).
T14 sequence: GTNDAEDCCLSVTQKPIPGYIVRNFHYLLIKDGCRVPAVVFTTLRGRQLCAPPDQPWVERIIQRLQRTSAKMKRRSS
Put plainly: BLI.

Test [7] deals with T15, CCL3L1_HUMAN (human, UniProt P16619 24-93).
T15 sequence: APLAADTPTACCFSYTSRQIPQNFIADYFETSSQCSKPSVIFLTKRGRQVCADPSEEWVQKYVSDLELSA
Briefly: BLI.

A further test has as its target T16, CCL22_HUMAN (human, UniProt O00626 25-93).
T16 sequence: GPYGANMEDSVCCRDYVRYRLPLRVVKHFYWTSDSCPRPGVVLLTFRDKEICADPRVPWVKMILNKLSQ
Put plainly: BLI.

The next test addresses T17, CCL14_HUMAN (human, UniProt Q16627 22-93).
T17 sequence: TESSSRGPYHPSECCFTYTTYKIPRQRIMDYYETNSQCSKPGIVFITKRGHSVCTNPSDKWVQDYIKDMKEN
Briefly: BLI.

The next test addresses T18, CCL17_HUMAN (human, UniProt Q92583 24-94).
T18 sequence: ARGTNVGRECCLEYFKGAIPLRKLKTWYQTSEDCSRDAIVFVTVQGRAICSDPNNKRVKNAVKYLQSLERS
Put plainly: BLI.

The next test concerns the target T19, CCL24_HUMAN (human, UniProt O00175 27-104).
T19 sequence: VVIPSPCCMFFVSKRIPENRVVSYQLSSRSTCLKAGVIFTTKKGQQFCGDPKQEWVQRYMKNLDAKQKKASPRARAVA
Briefly: BLI.

The target in test [8] is T20, CCL2_HUMAN (human, UniProt P13500 24-99). Put plainly: BLI.
The target of test [9] is T3, CCL3_HUMAN. Put plainly: cell-based or functional assay.
Test [10] deals with T1, CCL8_HUMAN. Briefly: cell-based or functional assay. This is another data set of the same source.
The target in test [11] is T8, CCL5_HUMAN. Put plainly: cell-based or functional assay.
Test [12] has as its target T11, CCL7_HUMAN. Briefly: cell-based or functional assay.
The target of test [13] is T15, CCL3L1_HUMAN. Put plainly: cell-based or functional assay.
The target in test [14] is T20, CCL2_HUMAN. Put plainly: cell-based or functional assay.
The next test addresses T21, mouse CXCL1 (mouse, UniProt P12850 25-96).
T21 sequence: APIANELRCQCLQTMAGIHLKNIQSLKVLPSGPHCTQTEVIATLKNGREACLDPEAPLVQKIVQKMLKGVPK
Put plainly: cell-based or functional assay.

For another test, the target named is T22, mouse CXCL10 (mouse, UniProt P17515 22-98).
T22 sequence: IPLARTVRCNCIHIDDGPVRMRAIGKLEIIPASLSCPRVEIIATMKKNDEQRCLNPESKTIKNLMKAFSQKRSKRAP
Put plainly: cell-based or functional assay.

In a further test the target is T23, mouse CXCL2 (mouse, UniProt P10889 28-100).
T23 sequence: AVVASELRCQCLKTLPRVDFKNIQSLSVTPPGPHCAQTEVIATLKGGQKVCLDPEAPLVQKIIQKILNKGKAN
Briefly: cell-based or functional assay.

A further test has as its target T24, CXCL7_HUMAN (human, UniProt P02775 59-128).
T24 sequence: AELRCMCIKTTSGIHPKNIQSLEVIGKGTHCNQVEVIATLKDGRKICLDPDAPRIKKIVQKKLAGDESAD
Put plainly: yeast surface display FACS re-test.

The next test deals with T25, CXCL10_HUMAN (human, UniProt P02778 22-98).
T25 sequence: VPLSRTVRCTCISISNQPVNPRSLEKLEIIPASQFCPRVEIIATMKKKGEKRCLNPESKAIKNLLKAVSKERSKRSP
Briefly: yeast surface display FACS re-test.

A further test has as its target T26, CXCL13_HUMAN (human, UniProt O43927 23-109).
T26 sequence: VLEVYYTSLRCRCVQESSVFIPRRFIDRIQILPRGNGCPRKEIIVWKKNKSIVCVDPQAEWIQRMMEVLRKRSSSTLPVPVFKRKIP
Briefly: BLI.

The target in another test is T27, CXCL9_HUMAN (human, UniProt Q07325 23-125).
T27 sequence: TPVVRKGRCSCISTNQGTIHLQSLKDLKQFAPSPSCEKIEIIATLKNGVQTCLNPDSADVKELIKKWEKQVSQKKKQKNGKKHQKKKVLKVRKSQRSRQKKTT
Put plainly: BLI.

The next test deals with CXCL12_HUMAN (human, UniProt P48061 22-89). Briefly: BLI.
For another test, the target named is T28, CXCL14_HUMAN (human, UniProt O95715 35-111).
T28 sequence: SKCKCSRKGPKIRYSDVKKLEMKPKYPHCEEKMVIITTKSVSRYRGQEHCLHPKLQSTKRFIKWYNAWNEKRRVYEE
Briefly: BLI.

A further test concerns the target T29, CXCL8_HUMAN (human, UniProt P10145 28-99).
T29 sequence: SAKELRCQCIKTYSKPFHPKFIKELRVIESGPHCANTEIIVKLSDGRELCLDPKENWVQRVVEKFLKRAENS
Put plainly: BLI [Cont.].

T20 sequence (P13500 24-99 limits assumed): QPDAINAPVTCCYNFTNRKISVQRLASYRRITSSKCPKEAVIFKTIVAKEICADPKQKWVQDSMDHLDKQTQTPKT
T11 sequence (P80098 24-99 limits assumed): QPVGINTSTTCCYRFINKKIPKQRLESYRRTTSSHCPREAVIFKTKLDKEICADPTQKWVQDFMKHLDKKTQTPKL
CXCL12_HUMAN, sequence (P48061 22-89 limits assumed): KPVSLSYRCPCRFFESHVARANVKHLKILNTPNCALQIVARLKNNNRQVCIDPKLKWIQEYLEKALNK
CCL13_HUMAN, sequence (Q99616 24-98 limits assumed): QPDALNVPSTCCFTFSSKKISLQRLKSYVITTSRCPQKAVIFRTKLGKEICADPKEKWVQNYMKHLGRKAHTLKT
CCL11_HUMAN, sequence (P51671 24-97 limits assumed): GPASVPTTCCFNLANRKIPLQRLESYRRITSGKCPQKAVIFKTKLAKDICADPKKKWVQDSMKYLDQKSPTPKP
CCL20_HUMAN, sequence (P78556 27-96 limits assumed): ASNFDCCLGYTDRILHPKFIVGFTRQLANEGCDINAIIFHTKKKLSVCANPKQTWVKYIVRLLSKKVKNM

B1: P672:EVA1 (P672_RHIPU (1-44): EVA1_RHISA (29-94)) (designed binder)
chain: VCEVSEQEGVGEDNATEDEDYEDFFKPVTCYFANSTVGPLRPPNCKQDCNGTTETAPNGTRCFSIGDEGLRRMTANLPYDCPLGQCSNGDCIPKETYEVCYRRNWRDEKN
As to B1, in the test with CCL8_HUMAN [1], the “IC50, CCL8 induced THP-1 monocyte cell migration” value was determined as 48 nM. This molecule also returned a Kd in the test with CCL8_HUMAN [2] of 223 nM.

B2: P991_AMBCA (other)
chain: ENGEGTTQPDYDNSTDYYNYEDFKCTCPAPHLNNTNGTVMKPIGCYYTCNVTRCTAPDTYPCYNLTEHQAKNLTTSPTTLCAVGNCDHGICVPNGTKELCFKAPNLEE
For B2, the “RT” value with CCL18_HUMAN stood at 185 min; with CCL3_HUMAN [3] it was 42.6 min; with CCL15_HUMAN it was 1.08 min; with CCL11_HUMAN, 24.9 min; with CCL8_HUMAN [4], 10.8 min; with CCL16_HUMAN, 102 min. Besides, the “RT” value turned out to be 5.37 min with CCL1_HUMAN; 290 min in the test with CCL13_HUMAN; 4.14 min with CCL27_HUMAN; 113 min with CCL5_HUMAN [5]; 7.03 min with CCL20_HUMAN; 12.1 min with CCL21_HUMAN. Also, the “RT” value with CCL4L1_HUMAN is 42.8 min; with CCL7_HUMAN [6], 508 min; with CCL23_HUMAN, 32.3 min; in the test with CCL4_HUMAN, 32.2 min; with CCL19_HUMAN, 7 min; with CCL3L1_HUMAN [7] it was 52 min. The “RT” value worked out at 16.8 min with CCL22_HUMAN; 192 min in the test with CCL14_HUMAN; 10.3 min with CCL17_HUMAN; 7.07 min with CCL24_HUMAN; 4.17 min in the test with CCL2_HUMAN [8]. In addition, the “IC50, THP1 cell migration” value with CCL3_HUMAN [9] was 2.9 nM; with CCL8_HUMAN [10] it was 2.1 nM; with CCL5_HUMAN [11] it was 1.84 nM; in the test with CCL7_HUMAN [12] it was 6.51 nM; in the test with CCL3L1_HUMAN [13], 1.17 nM; with CCL2_HUMAN [14], 4.78 nM.

B3: P1142_AMBCA (other)
chain: KPQILQRTDHSTDSDWDPQMCPETCNPSKNISCSSECLCVTLGGGDETGTCFNMSGVDWLGHAQASDGHNDG
Turning to B3, the “IC50, mouse bone marrow granulocyte cell migration” value with mouse CXCL1 was found to be 2.15 nM; in the test with mouse CXCL2, 0.66 nM. The “IC50, activated mouse T cell migration” value with mouse CXCL10 was found to be 3.37 nM. In addition, the “% cells over threshold fluorescence” value with CXCL7_HUMAN was determined as 71%; with CXCL10_HUMAN, 80%. Moreover, the binding result with CXCL13_HUMAN, in the test with CXCL9_HUMAN, in the test with CXCL12_HUMAN, with CXCL14_HUMAN and in the test with CXCL8_HUMAN was “no binding (tested: 300 nM)” in each case.

B4: Evasin-1 peptide variant K92E encoded by EZ406190.1 (other)
chain: EDDEDYGDLGGCPFLVAENKTGYPTIVACKQDCNGTTETAPNGTRCFSIGDEGLRRMTANLPYDCPLGQCSNGDCIPKETYEVCYRRNWRDEKN
notes: also called Evasin-1 (EZ406190.1)
As for B4, the binding result with CCL8_HUMAN [2] was “no binding (tested: 300 nM)”.

What is called Kd is a measure of binding affinity in units of concentration. A low value points to higher affinity.
